# Data reported in US20190358242A1, “COMPOSITIONS, KITS, AND METHODS TO INDUCE ACQUIRED CYTORESISTANCE USING STRESS PROTEIN INDUCERS” (FRED HUTCHINSON CANCER RESEARCH CENTER, priority 2017, published 2019).
# Key:
# haptoglobin = assay: Tin mesoporphyrin: renal cortical and plasma haptoglobin levels; format: in vivo, mice; conditions: 4 and 18 hrs post 1 umole injection
# HO-1 protein [1] = assay: Tin mesoporphyrin: renal cortical and plasma HO-1 protein (ELISA); format: in vivo, mice
# Source text: FIG. 29. Tin mesoporphryin effects on renal cortical and plasma HO-1 protein levels at 4 and 18 hrs post 1 umole injection. By 4 hrs and 18 hrs post Sn mesoporphyrin injection, an approximate 3 fold and 5 fold increases in renal cortical HO-1 levels over baseline (BL) were observed, as detected by ELISA. Plasma HO-1 levels rose ˜15 fold by 18 hrs post injection (n, 3-4 per group).
# haptoglobin mRNA [2] = assay: SnPP vs. SnMeP: renal cortical haptoglobin mRNA induction (RT-PCR); format: in vivo, mice; conditions: 1 umole, 4 hrs post injection, n 3
# Source text: (§1) FIG. 28. Comparison of SnPP vs. SnMeP effects on renal cortical HO-1 and haptoglobin mRNA induction 4 hrs post agent injection. Mice received either 1 umole tin protoporphyrin (SnPP), tin mesoporphyrin (SnMeP), or vehicle (n, 3 each) and 4 hrs renal cortical RNA was extracted and subjected to RT-PCR.
# HO-1 mRNA [3] = assay: SnPP vs. SnMeP: renal cortical HO-1 mRNA induction (RT-PCR); format: in vivo, mice; conditions: 1 umole, 4 hrs post injection, n 3
# Source text: as §1
# [4] = system: bilateral renal ischemic injury; assay: 22 min bilateral renal ischemic injury after mesoporphyrin pre-treatment; format: in vivo, mice; conditions: 1 umole 18 hrs before 22 min bilateral ischemic injury
# Experimental: FIG. 31. Tin mesoporphyrin pre-treatment mitigates renal ischemic injury. Mice received either 1 umole of Sn mesoporphyrin (MeP; n, 3) or vehicle (n,4) and 18 hrs later they were all subjected to 22 min of bilateral ischemic injury.
# Protection against acute kidney injury. Mice are treated with MesP alone (0.1-20.5 umoles), FeS alone (1 mg), MesP+FeS, or vehicle injection. Eighteen hrs post injections, the mice are anesthetized with pentobarbital. The abdominal cavities are opened. The renal pedicles are identified, and both are occluded with microvascular clamps. Body temperature are maintained at 36-37° C. throughout. Following 22 minutes of bilateral renal ischemia, the clamps are removed, uniform reperfusion are confirmed by the loss of tissue cyanosis, and then the abdominal cavities are closed in two layers with silk suture. Eighteen hrs later, the mice are re-anesthetized, the abdominal cavities are re-opened, and terminal blood samples are obtained from the vena cava. AKI severity are determined by degrees of BUN and plasma creatinine increases.
# [5] = system: glycerol model of rhabdomyolysis-induced AKI; assay: Glycerol model of rhabdomyolysis-induced AKI; format: in vivo, CD-1 mice; conditions: IV pretreatment 18 h before glycerol; 18 hours after glycerol
# Experimental: Assessments of cytoresistance. Glycerol model of rhabdomyolysis-induced AKI. Twenty mice were divided into 4 equal groups (controls, mice treated with N-Mgb, SnPP, and mice treated with N-Mgb+SnPP tail vein injections) as described previously. 18 hours later, the mice were briefly anesthetized with isoflurane and immediately injected with 9 mL/kg of 50% glycerol, administered in equally divided doses into each hind limb. At 18 hours after glycerol injection, the mice were anesthetized with pentobarbital, the abdomen was opened, a blood sample for BUN and creatinine assessments was obtained from the vena cava, and the kidneys were resected. The control post-glycerol group and the N-Mgb+SnPP-pretreated glycerol group had kidney sections stained with H&E.
# To assess whether the previously determined plasma and kidney HO-1 and haptoglobin levels correlated with degrees of cytoresistance, additional mice were injected with 0, 2.5, or 5 mg of N-Mgb […] of SnPP (n=3 mice per group). Eighteen hours later, all mice were subjected to the glycerol AKI model as described previously. Severities of AKI were determined 18 hours after glycerol injection by BUN and plasma creatinine analyses.
# Calculations and statistics. All values are given as the mean […] standard error of the mean. Statistical comparisons were made by unpaired Student's t test. […]
# HO-1 protein [6] = assay: Cardiac HO-1 protein (ELISA); format: in vivo, CD-1 mice; conditions: 4 h after IV injection
# Experimental: (§2) Thirty-two mice were divided into 4 equal groups: (1) control mice; (2) mice treated with 1 mg of N-Mgb injection (as a bolus through the tail vein); (3) mice treated with […] of SnPP (via tail vein); and (4) mice treated with combined N-Mgb 1 SnPP. After either 4 hours (n=16) or 18 hours (n=16), the mice were deeply anesthetized with pentobarbital (50 mg/kg), the abdomen was opened through a midline abdominal incision, and the kidneys were removed. To determine potential effects on extrarenal organs, a liver lobe and the heart were also removed. The tissues were iced and then extracted for protein and RNA (RNeasy Plus Mini; Qiagen, Valencia, Calif.) and subjected to enzyme linked immunosorbent assay (ELISA) and reverse transcriptase polymerase chain reaction (RT-PCR) for HO-1, haptoglobin, and IL-10 protein and messenger RNAs (mRNAs). Zager et al. J Am Soc Nephrol 2014; 25:998-1012; Zager et al. Am J Physiol 2012; 303:F139-48. As an assessment of renal function, control mice and the 18 hour after N-Mgb+SnPP-treated mice had blood urea nitrogen (BUN) and plasma creatinine levels measured. Additionally, transverse 10% formalin fixed kidney sections ([…]) were cut and stained with hematoxylin and eosin (H&E) and periodic acid Schiff (PAS) to further assess potential injury.
# haptoglobin protein [7] = assay: Kidney haptoglobin protein (ELISA); format: in vivo, CD-1 mice
# Experimental: as §2
# [8] = Serum creatinine after 2 hr subcutaneous infusion of nitrited myoglobin + SnPP; format: in vivo, mice; conditions: 2 hr SC infusion 1, 3, 6, 12, or 25 mg/Kg + 1 μmole SnPP; 18 hrs later
# Experimental: Mice were subjected to a 2 hr subcutaneous infusion of 1, 3, 6, 12, or 25 mg/Kg of nitrited myoglobin (holding SnPP at a constant dose of 1 μmole). Eighteen hrs later, potential renal injury was assessed by measuring serum creatinine concentrations.
# An obvious concern by applying this prophylactic strategy to patients is potential renal and/or extrarenal toxicities. […] Furthermore, it was previously documented in a cell culture system that nitrite addition markedly reduces myoglobin's cytotoxic effects by 75% (unpublished data, 2014). To assess the potential in vivo margin of safety for N-Mgb+SnPP (see Supplemental FIGS.), the maximal amount of N-Mgb that could be given to mice before nephrotoxicity was observed was tested. Up to 25 times the employed N-Mgb dose (with a constant SnPP dose) could be administered (over 2 hours) without induction of nephrotoxicity (normal BUN and creatinine, 18 hours later).
# IL-10 protein [9] = assay: Kidney IL-10 protein (ELISA); format: in vivo, CD-1 mice
# Experimental: as §2
# IL-10 protein [10] = assay: Liver IL-10 protein (ELISA); format: in vivo, CD-1 mice
# Experimental: as §2
# HO-1 mRNA [11] = assay: Cardiac HO-1 mRNA (RT-PCR); format: in vivo, CD-1 mice
# Experimental: as §2
# IL-10 mRNA [12] = assay: Cardiac IL-10 mRNA (RT-PCR); format: in vivo, CD-1 mice
# Experimental: as §2
# HO-1 mRNA [13] = assay: Liver HO-1 mRNA (RT-PCR); format: in vivo, CD-1 mice
# Experimental: as §2
# haptoglobin mRNA [14] = assay: Cardiac haptoglobin mRNA (RT-PCR); format: in vivo, CD-1 mice
# Experimental: as §2
# HO-1 protein [15] = assay: Kidney HO-1 protein (ELISA); format: in vivo, CD-1 mice
# Experimental: as §2
# IL-10 protein [16] = assay: Cardiac IL-10 protein (ELISA); format: in vivo, CD-1 mice
# Experimental: as §2
# haptoglobin mRNA [17] = assay: Kidney haptoglobin mRNA (RT-PCR); format: in vivo, CD-1 mice
# Experimental: as §2
# haptoglobin protein [18] = assay: Cardiac haptoglobin protein (ELISA); format: in vivo, CD-1 mice
# Experimental: as §2
# IL-10 mRNA [19] = assay: Kidney IL-10 mRNA (RT-PCR); format: in vivo, CD-1 mice
# Experimental: as §2
# HO-1 mRNA [20] = assay: Kidney HO-1 mRNA (RT-PCR); format: in vivo, CD-1 mice
# Experimental: as §2
# IL-10 mRNA [21] = assay: Liver IL-10 mRNA (RT-PCR); format: in vivo, CD-1 mice
# Experimental: as §2
# HK-2 cells = assay: HK-2 cell injury by MTT assay; format: cell-based; conditions: 10 mg/ml, equimolar Na nitrite, 18 hr incubation
# Experimental: HK-2 cells (a proximal tubule cell line derived from normal human kidney) were incubated in keratinocyte serum free medium either under normal (control) conditions or in the presence of 10 mg/mL horse skeletal muscle myoglobin or nitrited myoglobin (produced by equimolar Na nitrite addition to 10 mg/ml myoglobin). After 18 hr incubations, the severity of cell injury (% cell death) was assessed by MTT assay. Myoglobin induced 40% cell death (40% decrease in MTT cell uptake), compared to control incubated cells. Nitrite binding to myoglobin reduced cell death by 75%. Thus, nitrite binding is able to reduce myoglobin's cytotoxic effects.
# haptoglobin protein [22] = assay: Liver haptoglobin protein (ELISA); format: in vivo, CD-1 mice; design: unit not given beside the values
# Experimental: as §2
# haptoglobin mRNA [23] = assay: Liver haptoglobin mRNA (RT-PCR); format: in vivo, CD-1 mice
# Experimental: as §2
# HO-1 protein [24] = assay: Liver HO-1 protein (ELISA); format: in vivo, CD-1 mice; design: unit not given beside the values
# Experimental: as §2
# [25] = 4 h after IV injection, N-Mgb 1 mg, SnPP 1 mmol [sic]
molecule,measurement,setting,value
tin mesoporphyrin [SnMeP],Renal cortical and plasma haptoglobin levels,haptoglobin,stepwise increases
same,Increase in renal cortical HO-1 levels over baseline,HO-1 protein [1]; 4 hrs post 1 umole injection,~3 fold
same,Increase in renal cortical HO-1 levels over baseline,HO-1 protein [1]; 18 hrs post 1 umole injection,~5 fold
same,Rise in plasma HO-1 levels,HO-1 protein [1]; 18 hrs post 1 umole injection,~15 fold
same,Renal cortical haptoglobin mRNA induction,haptoglobin mRNA [2],raised
same,Renal cortical HO-1 mRNA induction,HO-1 mRNA [3],raised
same,Renal ischemic damage (BUN and plasma creatinine concentrations),[4],lessening of ischemic damage
"N-Mgb: horse myoglobin converted into a nitrited form by addition of equimolar sodium nitrite (protein, UniProt P68082 2-154, looked up, nitrite-modified, horse myoglobin converted into a nitrited form by addition of equimolar sodium nitrite) Myoglobin: GLSDGEWQQVLNVWGKVEADIAGHGQEVLIRLFTGHPETLEKFDKFKHLKTEAEMKASEDLKKHGTVVLTALGGILKKKGHHEAELKPLAQSHATKHKIPIKYLEFISDAIIHVLHSKHPGDFGADAQGAMTKALELFRNDIAAKYKELGFQG",Protection against glycerol-induced AKI judged by BUN/creatinine levels,[5],modest protection
same,Cardiac protein HO-1,HO-1 protein [6],1.64 ± 0.19
same,"Renal haptoglobin protein levels, in words","haptoglobin protein [7]; 18-hour time point, vs combination",comparably increased
same,Kidney Haptoglobin protein,haptoglobin protein [7]; [25],17.6 ± 1^
same,Kidney protein Haptoglobin,haptoglobin protein [7]; 18 h after IV injection,183.8 ± 20.4
same,Serum creatinine concentration change,[8],No significant increase
same,Kidney IL-10 protein,IL-10 protein [9]; [25],265 ± 54
same,Kidney protein IL-10,IL-10 protein [9]; 18 h after IV injection,292 ± 54
same,"Renal IL-10 protein increase, in words","IL-10 protein [9]; 18 hours, agent alone",absence of IL-10 protein increases
same,Liver protein IL-10,IL-10 protein [10]; 4 h after IV injection,286 ± 32
same,Liver protein IL-10,IL-10 protein [10]; 18 h after IV injection,5988 ± 549
same,Cardiac mRNA HO-1,HO-1 mRNA [11]; 4 h after IV injection,0.09 ± 0.01
same,Cardiac mRNA HO-1,HO-1 mRNA [11]; 18 h after IV injection,0.08 ± 0.01
same,Cardiac mRNA IL-10,IL-10 mRNA [12]; 4 h after IV injection,0.86 ± 0.11
same,Cardiac mRNA IL-10,IL-10 mRNA [12]; 18 h after IV injection,0.67 ± 0.10
same,Liver mRNA HO-1,HO-1 mRNA [13]; 4 h after IV injection,1.83 ± 0.33
same,Liver mRNA HO-1,HO-1 mRNA [13]; 18 h after IV injection,0.82 ± 0.07
same,Cardiac mRNA Haptoglobin,haptoglobin mRNA [14]; 4 h after IV injection,0.75 ± 0.10
same,Cardiac mRNA Haptoglobin,haptoglobin mRNA [14]; 18 h after IV injection,0.53 ± 0.21
same,"Renal HO-1 protein increase, in words","HO-1 protein [15]; 18-hour time point, agent alone",only relatively small HO-1 protein increases
same,Kidney HO-1 protein,HO-1 protein [15]; [25],36.1 ± 2.9
same,Kidney protein HO-1,HO-1 protein [15]; 18 h after IV injection,30 ± 6
same,Cardiac Protein IL-10,IL-10 protein [16]; 4 h after IV injection,21 ± 12
same,Cardiac protein IL-10 (L-10 [sic]),IL-10 protein [16]; 18 h after IV injection,14.5 ± 10^
same,Kidney mRNA Haptoglobin,haptoglobin mRNA [17]; [25],1.94 ± 0.31
same,Kidney mRNA cortex Haptoglobin,haptoglobin mRNA [17]; 18 h after IV injection,0.24 ± 0.04
same,Cardiac protein Haptoglobin,haptoglobin protein [18]; 4 h after IV injection,40.4 ± 8.6
same,Cardiac protein Haptoglobin,haptoglobin protein [18]; 18 h after IV injection,249.6 ± 15.0
same,"Impact on renal IL-10 mRNA levels, in words","IL-10 mRNA [19]; 4-hour time point, agent alone",either minimal or no impact
same,Kidney mRNA IL-10,IL-10 mRNA [19]; [25],1.45 ± 0.6
same,Kidney mRNA cortex IL-10,IL-10 mRNA [19]; 18 h after IV injection,0.43 ± 0.10
same,Kidney mRNA HO-1,HO-1 mRNA [20]; [25],3.38 ± 0.38
same,"Renal HO-1 mRNA increase, in words","HO-1 mRNA [20]; 4 hour, agent alone",only modest increases
same,Kidney mRNA cortex HO-1,HO-1 mRNA [20]; 18 h after IV injection,0.58 ± 0.18
same,Liver mRNA IL-10,IL-10 mRNA [21]; 4 h after IV injection,0.67 ± 0.46
same,Liver mRNA IL-10,IL-10 mRNA [21]; 18 h after IV injection,0.06 ± 0.02
same,Reduction of myoglobin-induced cell death by nitrite binding,HK-2 cells,75%
same,Liver protein Haptoglobin,haptoglobin protein [22]; 4 h after IV injection,359.5 ± 39.6
same,Liver protein Haptoglobin,haptoglobin protein [22]; 18 h after IV injection,358.8 ± 32.8
same,Liver mRNA Haptoglobin,haptoglobin mRNA [23]; 4 h after IV injection,0.98 ± 0.1
same,Liver mRNA Haptoglobin,haptoglobin mRNA [23]; 18 h after IV injection,0.91 ± 0.07
same,Liver protein HO-1,HO-1 protein [24]; 4 h after IV injection,17 ± 2
same,Liver protein HO-1,HO-1 protein [24]; 18 h after IV injection,14.9 ± 0.3
